The text below walks through data of paper PMC4601075, “Specific binding of eukaryotic ORC to DNA replication origins depends on highly conserved basic residues” (Scientific Reports, 2015).

In series [1] the test system is GH-Orc1 301-400 (Saccharomyces cerevisiae). As to the kind of experiment: EMSA. The settings on record: competitor DNA; 25 mM HEPES-KOH pH 7.6, 100 mM K glutamate, 5 mM Mg acetate, 5 mM CaCl2, 5 mM DTT, 5% glycerol, 0.1% Triton X-100, 2 mg/ml BSA, 1 mM ATP; 1.6 nM dsDNA or 3 nM …; scale: fold lower affinity than ORC hexamer.
Series [2] deals with ORC-1K362A hexamer K362A (Saccharomyces cerevisiae) (UniProt P54784+P32833+P54790+P54791+P50874+P38826). As to the kind of experiment: EMSA. The settings on record: 25 mM HEPES-KOH pH 7.6, 100 mM K glutamate, 5 mM Mg acetate, 5 mM CaCl2, 5 mM DTT, 5% glycerol, 0.1% Triton X-100, 2 mg/ml BSA, 1 mM ATP; 1.6 nM dsDNA or 3 nM ….
Series [3] deals with ORC-1R367A hexamer R367A (Saccharomyces cerevisiae) (UniProt P54784+P32833+P54790+P54791+P50874+P38826). The series is described as follows: EMSA. The settings on record: 25 mM HEPES-KOH pH 7.6, 100 mM K glutamate, 5 mM Mg acetate, 5 mM CaCl2, 5 mM DTT, 5% glycerol, 0.1% Triton X-100, 2 mg/ml BSA, 1 mM ATP; 1.6 nM dsDNA or 3 nM ….
Series [4] concerns the target T1, ORC (ScORC, ORC hexamer) (Saccharomyces cerevisiae, UniProt P54784+P54791).
T1 construct: gene ORC1; with Origin recognition complex subunit 2; Origin recognition complex subunit 3; Origin recognition complex subunit 5; Origin recognition complex subunit 6
As to the kind of experiment: nitrocellulose filter binding, Scatchard plot. An excerpt: (§1) nitrocellulose filter binding, Scatchard plot on ORC (ScORC, ORC hexamer)

The target in series [5] is T2, ORC (ScORC, ORC hexamer) (Saccharomyces cerevisiae, UniProt P54784+P54791, P54784:K362A).
T2 construct: gene ORC1; with Origin recognition complex subunit 2; Origin recognition complex subunit 3; Origin recognition complex subunit 5; Origin recognition complex subunit 6
T2 sequence (P54784 whole entry K362A): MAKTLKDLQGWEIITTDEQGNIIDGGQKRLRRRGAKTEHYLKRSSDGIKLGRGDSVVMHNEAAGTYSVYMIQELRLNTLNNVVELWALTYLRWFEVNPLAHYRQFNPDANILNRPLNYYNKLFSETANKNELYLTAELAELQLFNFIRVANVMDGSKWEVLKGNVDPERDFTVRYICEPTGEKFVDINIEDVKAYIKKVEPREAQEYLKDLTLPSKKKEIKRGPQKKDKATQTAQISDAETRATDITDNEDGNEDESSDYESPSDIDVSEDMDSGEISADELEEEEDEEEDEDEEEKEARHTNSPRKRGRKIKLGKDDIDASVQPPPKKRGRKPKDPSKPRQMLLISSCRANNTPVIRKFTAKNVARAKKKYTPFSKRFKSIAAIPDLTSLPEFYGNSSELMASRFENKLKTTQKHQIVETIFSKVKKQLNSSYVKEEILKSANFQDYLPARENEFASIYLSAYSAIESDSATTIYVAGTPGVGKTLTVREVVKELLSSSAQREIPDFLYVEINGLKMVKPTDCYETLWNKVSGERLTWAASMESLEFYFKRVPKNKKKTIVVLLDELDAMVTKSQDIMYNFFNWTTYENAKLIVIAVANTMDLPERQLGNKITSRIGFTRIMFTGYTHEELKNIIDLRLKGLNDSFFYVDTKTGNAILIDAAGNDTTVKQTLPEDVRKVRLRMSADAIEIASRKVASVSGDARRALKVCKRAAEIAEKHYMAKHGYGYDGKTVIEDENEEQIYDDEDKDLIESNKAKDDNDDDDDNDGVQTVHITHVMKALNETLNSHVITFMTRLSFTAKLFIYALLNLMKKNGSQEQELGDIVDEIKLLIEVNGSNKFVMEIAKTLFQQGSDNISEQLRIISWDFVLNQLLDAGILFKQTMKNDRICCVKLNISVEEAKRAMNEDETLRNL
T2 sequence (P54791 whole entry): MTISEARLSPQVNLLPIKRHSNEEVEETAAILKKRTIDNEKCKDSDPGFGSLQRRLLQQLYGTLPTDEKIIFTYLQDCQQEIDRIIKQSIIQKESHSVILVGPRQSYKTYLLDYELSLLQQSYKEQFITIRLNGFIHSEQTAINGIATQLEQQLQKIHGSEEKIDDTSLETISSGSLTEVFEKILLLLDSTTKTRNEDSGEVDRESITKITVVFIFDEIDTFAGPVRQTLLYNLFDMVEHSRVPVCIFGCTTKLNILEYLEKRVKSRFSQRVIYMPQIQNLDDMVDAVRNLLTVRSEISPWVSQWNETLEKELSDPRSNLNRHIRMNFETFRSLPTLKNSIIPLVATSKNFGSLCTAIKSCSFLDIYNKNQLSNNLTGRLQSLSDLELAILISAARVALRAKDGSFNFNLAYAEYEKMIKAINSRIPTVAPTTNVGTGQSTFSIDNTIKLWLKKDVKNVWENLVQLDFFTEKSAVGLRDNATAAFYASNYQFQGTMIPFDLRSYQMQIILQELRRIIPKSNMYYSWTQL
T2 sequence (P32833 whole entry partner): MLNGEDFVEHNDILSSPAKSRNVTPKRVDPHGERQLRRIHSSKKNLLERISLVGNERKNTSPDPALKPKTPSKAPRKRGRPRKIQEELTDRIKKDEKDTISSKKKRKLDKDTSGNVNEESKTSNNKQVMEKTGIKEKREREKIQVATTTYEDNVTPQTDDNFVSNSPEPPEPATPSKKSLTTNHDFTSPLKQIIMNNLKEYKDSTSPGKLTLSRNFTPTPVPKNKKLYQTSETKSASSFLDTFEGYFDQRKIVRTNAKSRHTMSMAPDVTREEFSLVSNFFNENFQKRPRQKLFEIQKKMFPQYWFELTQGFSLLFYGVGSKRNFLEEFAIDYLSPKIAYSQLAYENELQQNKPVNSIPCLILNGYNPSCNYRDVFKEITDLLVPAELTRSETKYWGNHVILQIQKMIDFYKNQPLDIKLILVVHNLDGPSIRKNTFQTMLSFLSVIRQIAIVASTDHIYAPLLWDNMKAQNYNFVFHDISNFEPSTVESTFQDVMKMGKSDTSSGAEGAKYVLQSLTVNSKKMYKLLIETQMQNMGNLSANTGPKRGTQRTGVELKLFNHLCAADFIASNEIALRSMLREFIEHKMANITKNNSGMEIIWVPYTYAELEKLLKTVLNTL
T2 sequence (P54790 2-616 partner): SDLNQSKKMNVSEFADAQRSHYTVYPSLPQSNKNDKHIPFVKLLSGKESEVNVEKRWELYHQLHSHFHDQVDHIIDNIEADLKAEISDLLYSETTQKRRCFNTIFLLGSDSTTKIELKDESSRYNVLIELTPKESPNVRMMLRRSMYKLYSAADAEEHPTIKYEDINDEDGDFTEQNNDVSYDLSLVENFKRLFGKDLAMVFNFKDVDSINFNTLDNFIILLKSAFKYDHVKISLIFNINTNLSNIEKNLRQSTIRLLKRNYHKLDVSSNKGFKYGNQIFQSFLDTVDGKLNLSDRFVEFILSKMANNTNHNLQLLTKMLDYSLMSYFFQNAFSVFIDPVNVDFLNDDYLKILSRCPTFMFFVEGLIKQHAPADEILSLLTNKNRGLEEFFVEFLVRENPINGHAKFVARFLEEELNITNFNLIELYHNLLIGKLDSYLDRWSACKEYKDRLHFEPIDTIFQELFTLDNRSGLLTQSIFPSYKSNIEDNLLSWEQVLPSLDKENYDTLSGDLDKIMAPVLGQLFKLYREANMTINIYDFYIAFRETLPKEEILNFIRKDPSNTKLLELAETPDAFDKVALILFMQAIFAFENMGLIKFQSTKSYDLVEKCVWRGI
T2 sequence (P50874 whole entry partner): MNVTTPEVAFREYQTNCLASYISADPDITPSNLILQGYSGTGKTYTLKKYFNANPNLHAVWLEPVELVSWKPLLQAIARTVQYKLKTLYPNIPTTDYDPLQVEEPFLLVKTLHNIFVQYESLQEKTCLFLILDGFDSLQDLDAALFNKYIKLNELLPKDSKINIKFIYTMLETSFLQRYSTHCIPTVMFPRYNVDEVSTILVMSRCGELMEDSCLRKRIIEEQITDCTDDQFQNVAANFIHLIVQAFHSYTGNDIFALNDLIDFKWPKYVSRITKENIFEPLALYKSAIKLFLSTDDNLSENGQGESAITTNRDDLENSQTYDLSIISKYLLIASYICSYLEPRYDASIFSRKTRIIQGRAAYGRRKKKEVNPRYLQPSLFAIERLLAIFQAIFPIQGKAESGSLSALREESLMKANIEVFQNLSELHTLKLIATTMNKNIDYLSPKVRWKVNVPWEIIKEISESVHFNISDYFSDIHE
T2 sequence (P38826 whole entry partner): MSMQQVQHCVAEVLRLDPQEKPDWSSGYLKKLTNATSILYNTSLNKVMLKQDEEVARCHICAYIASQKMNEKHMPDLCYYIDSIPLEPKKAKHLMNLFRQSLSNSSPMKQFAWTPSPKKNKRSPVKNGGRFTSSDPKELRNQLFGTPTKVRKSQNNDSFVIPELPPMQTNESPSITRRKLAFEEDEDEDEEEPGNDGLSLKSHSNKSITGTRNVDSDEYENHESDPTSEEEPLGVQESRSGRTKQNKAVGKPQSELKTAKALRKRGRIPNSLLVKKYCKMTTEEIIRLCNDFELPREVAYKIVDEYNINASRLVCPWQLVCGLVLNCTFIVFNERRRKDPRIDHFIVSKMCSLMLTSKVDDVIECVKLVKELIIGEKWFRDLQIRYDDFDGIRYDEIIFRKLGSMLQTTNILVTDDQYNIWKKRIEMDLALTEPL
The series is described as follows: nitrocellulose filter binding, Scatchard plot.
Description: as §1

The target of series [6] is T3, ORC (ScORC, ORC hexamer) (Saccharomyces cerevisiae, UniProt P54784+P54791, P54784:R367A).
T3 construct: gene ORC1; with Origin recognition complex subunit 2; Origin recognition complex subunit 3; Origin recognition complex subunit 5; Origin recognition complex subunit 6
T3 sequence (P54784 whole entry R367A): as the sequence (P54784 whole entry K362A) above, with A362K, R367A counted along it
T3 sequence (P54791 whole entry): as the sequence (P54791 whole entry) above
T3 sequence (P32833 whole entry partner): as the sequence (P32833 whole entry partner) above
T3 sequence (P54790 2-616 partner): as the sequence (P54790 2-616 partner) above
T3 sequence (P50874 whole entry partner): as the sequence (P50874 whole entry partner) above
T3 sequence (P38826 whole entry partner): as the sequence (P38826 whole entry partner) above
The series is described as follows: nitrocellulose filter binding, Scatchard plot.
Description: as §1

Series [7] addresses ORC-1K362A hexamer (Saccharomyces cerevisiae, UniProt P54784;P32833;P54790;P54791;P50874;P38826 1-914;1-620;1-616;1-529;1-479;1-435, K362A). The series is described as follows: EMSA; 1 mM ATP, competitor dsDNA; 25 mM HEPES-KOH pH 7.6, 100 mM K glutamate, 5 mM Mg acetate, 5 mM CaCl2, 5 mM DTT, 5% glycerol, 0.1% Triton X-100, 2 mg/ml BSA, 1 mM ATP; 1.6 nM dsDNA or 3 nM ssDNA, 300 ng GC-rich competitor in 5 ul, 10 min, room temperature. The settings on record: protein: recombinant; tags: TEV-His on Orc1; copies: 1;1;1;1;1;1; label: 3' Cy5-ddUTP (terminal transferase).

In series [8] the target is ORC-1R367A hexamer (Saccharomyces cerevisiae, UniProt P54784;P32833;P54790;P54791;P50874;P38826 1-914;1-620;1-616;1-529;1-479;1-435, R367A). The series is described as above. The conditions noted are these: protein: recombinant; tags: TEV-His on Orc1; copies: 1;1;1;1;1;1; label: 3' Cy5-ddUTP (terminal transferase).
The target in series [9] is ORC hexamer wild-type (Orc1-TEV-His/Orc2/3/4/5/6) (Saccharomyces cerevisiae, UniProt P54784;P32833;P54790;P54791;P50874;P38826 1-914;1-620;1-616;1-529;1-479;1-435). The description is as above. The settings on record: protein: recombinant; tags: TEV-His on Orc1 (C-terminal by name); copies: 1;1;1;1;1;1; label: 3' Cy5-ddUTP (terminal transferase).
Series [10] concerns the target T4, S. cerevisiae origin recognition complex (ORC) hexamer, wild type (S. cerevisiae, UniProt P54784 1-914; P32833 1-620; P54790 1-616; P54791 1-529; P50874 1-479; P38826 …).
T4 construct: Orc1, largest subunit of the S. cerevisiae origin recognition complex; expressed from ORC1-TEV-His; Orc2, subunit of the S. cerevisiae origin recognition complex; Orc3, subunit of the S. cerevisiae origin recognition complex; Orc4, subunit of the S. cerevisiae origin recognition complex; Orc5, subunit of the S. cerevisiae origin recognition complex; Orc6, subunit of the S. cerevisiae origin …
As to the kind of experiment: native gel or EMSA; ORC and Cdc6 incubated with Cy5-labeled ARS1 DNA (1.6 nM) and 300 ng GC-rich competitor, 10 min at room temperature, 25 mM HEPES-KOH pH 7.6, 100 mM potassium glutamate, 1 mM ATP; Cdc6-dependent supershift of the ORC-ARS1 complex on a 4% polyacrylamide gel. The settings on record: both partners purified.

T1 sequence (P54784 whole entry): as the sequence (P54784 whole entry K362A) above, with A362K counted along it
T1 sequence (P54791 whole entry): as the sequence (P54791 whole entry) above
T1 sequence (P32833 whole entry partner): as the sequence (P32833 whole entry partner) above
T1 sequence (P54790 2-616 partner): as the sequence (P54790 2-616 partner) above
T1 sequence (P50874 whole entry partner): as the sequence (P50874 whole entry partner) above
T1 sequence (P38826 whole entry partner): as the sequence (P38826 whole entry partner) above

As for ARS1 wild-type fragment, in series [1], the binding signal is more than 100.
As for “CCCACATGTCAATTTAGTATATTACTGTATATCTAGTTCATTCTTCAAAATAAAGAATGCATAACCATTTTTTTATGTTTTTTCCGGAATTGGCTAAATTCACAAAAAAAAAGAGCATAAAGCGAATTGAATTGTCTCGCCAAGAAAACGCACTGAGAGGACGATTGATCCTCCAGACAAGATCGGAATTTTTACTTTTCTGTTTTTAACGACGTCGG (double strand) [ARS609 fragment]”, the binding result in series [2] and in [3] was “binds more weakly” throughout.
As for “CCGACGTCAGATCTTAATTTATCTCATGAAGTAATGATACCTCAGCGATGTGCTCGCTCGTTAGTATGCTTCATAAATTCATTATTATTTTTTTTTGGAAGTGTTTTTCGACAAAAGTTGCATTTTTACGAAGGATATGTAAACTCAAGAAGTACTAAATAAATATAAATACAATTCGAAAATTTGAAAAAAGTAGGAGACAACACTTTCCTTCCTCACGAAGAAGTTAAGCTTACATGTGGG (double strand) [ARS306 fragment]”, the binding result in series [2] and in [3] was “binds more weakly” throughout.
As for `Nc1ncnc2c1ncn2[C@@H]1O[C@H](COP(=O)(O)OP(=O)(O)OP(=O)(O)O)[C@@H](O)[C@H]1O` [ATP], the Kd is 31 nM in [4], 35 nM in series [5] and 32 nM in series [6].
In the case of GTTACCATGGCATCGAGTTCTTCAACAAGACTACAATGG (ssDNA) [DL11], the binding result in [7], in series [8] and in [9] was “binds” in each case.

B1: ScCdc6 (natural protein, S. cerevisiae, UniProt P09119 1-513, looked up)
chain: MSAIPITPTKRIRRNLFDDAPATPPRPLKRKKLQFTDVTPESSPEKLQFGSQSIFLRTKALLQKSSELVNLNSSDGALPARTAEYEQVMNFLAKAISEHRSDSLYITGPPGTGKTAQLDMIIRQKFQSLPLSLSTPRSKDVLRHTNPNLQNLSWFELPDGRLESVAVTSINCISLGEPSSIFQKIFDSFQDLNGPTLQIKNMQHLQKFLEPYHKKTTFVVVLDEMDRLLHANTSETQSVRTILELFLLAKLPTVSFVLIGMANSLDMKDRFLSRLNLDRGLLPQTIVFQPYTAEQMYEIVIQKMSSLPTIIFQPMAIKFAAKKCAGNTGDLRKLFDVLRGSIEIYELEKRFLLSPTRGSLNSAQVPLTPTTSPVKKSYPEPQGKIGLNYIAKVFSKFVNNNSTRTRIAKLNIQQKLILCTIIQSLKLNSDATIDESFDHYIKAITKTDTLAPLQRNEFLEICTILETCGLVSIKKTKCKGKTKRFVDKIDVDLDMREFYDEMTKISILKPFLH
notes: Cdc6 of S. cerevisiae; source: E. coli, overexpressed and purified
For B1, the binding result in [10] is reported as “binds”.
